Experimental data: the DeepSol protein solubility set

Experiment: soluble on expression in E. coli; label from the status in PepcDB or PDB records

Sequence | soluble on expression in E. coli
MDISVVVPTLNGREELTGCLDALTEQVPDAEVIVVNGPSADGTTGMVRDRDDVSLLVEIADRSVTVARNAGIDRATGDVIALVHQSLSVESGWADAVKDGLSGAAQAITGPTHQQLWAGMTTETEETRTIAGRDVTYFNPGNVAFDAEVVEALDGFDEYLNVGSARDFAHRMAAGEYGVDWSTEMCVSREFEADGGIAETDWNWKYRSLAYRLVKNYNVRPTVVRRILSHAVGDAKDALFDVVRGETTPSQWLGTGQDVFGGVGSGIVDGVRARVTDRTARRNPNGRSARTNRAVTVYDWRLEHHHHHH | not soluble
MGARGKFDQFDDGKIKLASSLTSKAAANALQTIIEKYNIVKSGKDYPIEITQIAGGYDGGRTDLQTRVSVKDKTNFYNLILNYPDLVSVLARSGMELLFDKVNVDKLEPNFLKFNEQISGVAKSGNYGIPVSLSTDILVLNGPVLHYILNSAKKEEANSQVKSQIKTSQIQAKGSLTIDTDENTKSLWEKIQNSAKANGETNQKGRKAAKSNKTALVQLKNGADTTTNEENKDTKTSDDKVKQTWGDYVEKDDGLKNYTFRASVFENWHDFLDFSTRVAKSFTEKVSNITNKKGTDIQGVLGVDSSPNVLFASVFAAGGGNYENFFYKLKDGRADFSNFKNKGSSYQNLQSVFKDLEHHHHHH | not soluble
MGSDKIHHHHHHMAAGCTTPMERRQANGNDEYVNAQTTAPLKVPEGLKSPNYSREYDIPTLGAKANRELVGKNLDIRPPLQVLPMAEGTRVEEGSDNVKVIVESFDNSLDLKQEIFGLLKDHLQSRNIEIVKEDFASGTLETGWIETQEVLESSLWGSDKVFNLKQRYQYQVEVRPHGRTGAVIINLVDHQESYDGDDLKTALSADDKRRYAIDMLNNSIAYMAVKREQAIKAKRVRESLGIGVELVDGAEEGDAFYLAQGDSIRYGLT | not soluble
MAHHHHHHSLVDVRQSIHSEHAKTLDTQALRREFLIENIFVADEYTMVYSHIDRIIVGGIMPVSHPVEIGGEVGKQLGVSRLLDRRELGVINIGGAGAIIVDGQRHDIGHRDALYIGKGAKELVFVSNEASRPAKFYYNCAPAHTAYPTKKVSPADVAPVTLGDNLTSNRRTINKYFVPDVLETCQLSMGLTELAPGNLWNTMPCHTHERRMEVYLYFNMEEDSCVFHMMGQPQETRHIVMRNEQAVISPSWSIHSGVGTKAYTFIWGMVGENQVFDDMDHVAVQDLREG | soluble
KNAELSIKLNKEEYQANEDIEIQITAPYTGSGLITIERDKVYAVHWFKTEAQNSVQTIRIPADFQGNGYVNVAFIRDWESPELFISPLSYSVAPFNVNHDKHDIKIGLKTPELARPGESFTIDYHTDKPGKIIVFAVDEGILQVANY | not soluble
MGHHHHHHSHMNNRTRLALIICNTEFDHLPPRNGADFDITGMKELLEGLDYSVDVEENLTARDMESALRAFATRPEHKSSDSTFLVLMSHGILEGICGTVHDEKKPDVLLYDTIFQIFNNRNCLSLKDKPKVIIVQACRGANRGELWVRDSPASLEVASSQSSENLEEDAVYKTHVEKDFIAFCSSTPHNVSWRDSTMGSIFITQLITCFQKYSWCCHLEEVFRKVQQSFETPRAKAQMPTIERLSMTRYFYLFPGN | soluble
MRRLLWLLTLGALAVALTACPRKAEEEAATETAPAEETSLPGANVRVGLAFDAGGKFDRSFNQSAWEGAQRAAQELGVQIFDFEPADPSQVGQGIRTFAEEGFDLVIGVGFANEPAITATAKEFPNVKFAVIDAVPGEGQLPNALGVVFREHEGSFLVGYVAGKLSRTGVVGFIGGMDIPLIHKFEAGFRAGAEYAFQEDGIQGRVLVGYVGNTPAAWNDPAKAKEIASSQARQGADIIYAAAGGSGLGLIDFVKEEMCLREGGAVRFVREDRFADVPKYPAYEEKCGEGTTPLFFIGVDANQNYLGDTDNDPTTLNHGLTSMVKRVDVAVYDTIKSVVDGTFQGGVKDLGLAEEGVGYALDEYNQALIPEEVKARLEELKQAIINGEIQVPETR | soluble
MGSDKIHHHHHHMAAFQTAAQLARAVQSGETTPQQLLHGALARAEAVRGLNALVSLNSHAEEQAAAVQGRMQAGETLPLAGVPIVVKDNINVTGTRTTCGSRMLANYVSPYTATAAQKLQGAGAVIVGKANMDEFAMGSSTESSASGPTLNPWDHERVPGGSSGGSAVAVAAGISPVSLGSDTGGSVRQPAALCGVYGFKPTYGRVSRYGLVAYASSLDQIGPFARSAEDLALLMNVIAGHDPRDATSLDAPARFAVGGADSLRGLRVGVIRESLGGNTPGVEAALGATLDALRGAGAVVGEVSIPELEYAIAAYYLIAMPEASSNLARYDGMVYGERVPGGDVTRSMTLTREQGFGQEVQRRILLGTYALSSGYYDAYYAKAMKVRRLIADEFTTAFGQYDVLVTPTSPFPAFRRGEKASDPLAMYAADVDTVAVNLAGLPALSVPAGFEEVDGKRLPVGVQFIAPALQDERLLALAGALEAVGAVQLEMPQD | not soluble
MGSDKIHHHHHHMDYLDKLTHLAQVRGEINIRCEFQGEWQISHQEKDAGKGIFHLIEQGECWLTLNEKQFHLKEGDVFFLPQNQPHSMHYSANKRADIPTKKSHQGLFELHQIGRGTPDLKMFCGNFYYQQDALLTASMPEYLHINLCDTPIHPLVQLFLQEAQKNDAGTKSVVDALSNVLLIYILRHAIQQNLIEQGILFALQDKRLNTALIAILQQPQNDWHIEQLAELATMSRANFIRIFQQHIGMSPGRFLTKVRLQSAAFLLKQSQQSVLAIALEVGYQSEAHFCKVFKNYYQLSPSQYRKSVSL | not soluble
MSSSTTDDDSCSYFFFRQACLIPTPSVPTHPSVSIKIYPPFAEFIDFGGASRHILTNNGTCRIVFKVKCSNNLVFKVSPVYAFLDPGATAELQVLRREGPPKHDKLIISLKEAKKGDKDPRVTFNDSTHTTHKHILPLLTRIVEEQ | not soluble
MKLDKIDNKNRRIRKKLFLGEFAILGFEISCETDINDFDRYDAFVDDFIDYIDTLGLCFGGGGLELFEGFLCSTERYGSATEEQKAQVVAWLEARPEVKSAKAGDLLDANYL | soluble
MSTCPIDPPALRAAFAGPLDPQHAEVLLSRYDQHASRLLDALHALYGQRADYASWLAQWLGEVGDIARQRPQALQTLDSTRHAGWFGQPHMLGYSAYADRFAGTLQGVAERVPYLQELGVRYLHLLPFLRARAGDNDGGFAVSDYGQVEPSLGSNDDLVALTSRLREAGISLCADFVLNHTADDHAWAQAARAGDARYLDYYHHFADRTVPDRYEATLGQVFPHTAPGNFTWVDDTAQWMWTTFYPYQWDLNWSNPAVFGDMALAMLRLANLGVEAFRLDSTAYLWKRIGTDCMNQSEAHTLLVALRAVTDIVAPAVVMKAQAIVPMTQLPPYFGSGVDEGHECHLAYHSTLMAAGWSALALQRGDILHNVIAHSPPLPRHCAWLSYVRCHDDIGWNVLQHEACGNAAQPPFSLRDVARFYANAVPGSYARGESFQSSGDGVHGTNGMAAALAGIQAAQEAGDAAALAVAVDRLVLLYAIALAMPGVPLIYMGDELAMVNDPGYRDDPHRQHEGRWLHRPAMDWQLAAQRHDAKSLSGTVYRRLRGLIRQRAALGALAADQALASIALNDPRVFALTRGDSFIALHNFSDQLLDVELAAIGVDGWTLLAIDDAIGGAAARGDGSIVLPPYGVRWLQRGTEHAPE | soluble
MRVIVTEYQPAWVEQFEEEAQALKQILKENCLKVEHIGSTSVPNLAAKPIIDFLVIVEEIEKVDLLQWEFERIGYEYMGEFGLSGRRYLRKGPIKRTHHVHIYQFDNTQEILRHLAFRNYLRENPAIATTYGTLKKQLAQAHPDSIDKYMDGKDAFIKKIEKEALKKYWEK | not soluble
PATDASVLLVQLSDSHLFAEDGARLLGMDTAHSLEKVVERVAREQPRIDLILATGDVSQDGSLDSYTRFRRLSAPLDAPLRWFAGNHDEREPMQRATEGSDLLEQVVDVGNWRVVLLDSSIPGAVPGYLEEDQLELLRRAIDSAGERFLLVSFHHHPVPIGSDWMDPIGLRNPQALFDLLAPYPQVRCLLWGHIHQEFDRQRGPLRLLASPSTCVQFAPGSSDFTLDRLAPGYRWLRLHDDGRLETGISRVDDVVF | not soluble
GDFIVVQSTTSTQNSGLLDHILPAFEAETGIEVRVVAVGTGQAIRNAANGDGDVLLVHAKAAEEKFVAEGWGVERFDVMYNDFVLVGPASDPAGVRGGSDIVAALSAIAGAEAPFASRGDDSGTHKAELRHWASAGIDVSAASGGWYRETGSGMGATLNLAAGMGAYALSDRATWIAFGNKGDLVVAVEGDARLFNQYGVILVNPAKHPGVKAEAGQRFIDWLTGDEGQAAIAGYTL | not soluble
MYEQQQHFMDLQSDSGFGDDSSWLAGDDDLRLSPHQSAAGTNSGNENLDRRLLKDLVEMVPLIEHYMEHKERSSFKRRGSMIYTKMPSKESLSRRGRNASQTVPGRKKRDQEGNDDVMNNSREDDENAKALAGAEKEEMSRLREQVNDLQTKLSEKEEVLKSMEMSKNQVNEIQEKLEATNRLVAEKDMLIKSMQLQLSDTKIKLADKQAALEKTQWEAKTTGTRAIKLQEQLDAVEGDISTFTRVFETLAKTDSKKPDRDYDAVPYEFDHLPYLDDVDETDLRKMEEARLAYVAAVNTAKEREDEESLVMAAQARAYLQSLAFTY | soluble
MKVVGVTSCIAGLAHTPMAAKALEKAGVKLGHDVKIEQQGAMGTIDEITPAEVSAADVVIIAADKVIDGEDRFKGKPVVRVKIGQCVANGEAVLSKVVAAIEARKQKEAN | not soluble
MSLRTSASLAGSLAYGMADFLGRSEHLSIIDMIVPRMRQDNVETVVGMFDGQPSSTGGSRVAKFLHENFLHTFSAELKRLRRDEQETPLDAFRRTFLTLNRNMAFACYKSIDQDVRLFQEDSSDQKKVRLNKEDLQSGGVATVLYLNNTDLYAANIGDAQAILVKSDGSMRYLTRNHDPAEAGERARIRAAGGFVSRNGRLNDYLPVSRSFGYFNLMPAVIAAPHTMHVSLTEQDEMIILASKELWDYVTPDLVVDVTRAERRDLMVAAQKIRDLALSFGANNKLMVMILGVGDLREGHHHHHH | soluble
MAKLDDWTDIFLDDEGNFRASADGDVQLVTGKAAYLQDVKHELETVLGSYPFDENYGTRLITYLQRENTELARQELIQDVEEVVMRHSFVVPGSVDVRANSWTLREIEFSVSFGVQTSGGIEPAELTVQITVDGVRVVRSE | not soluble
MRITSTANPRIKELARLLERKHRDSQRRFLIEGAREIERALQAGIELEQALVWEGGLNPEEQQVYAALGRVGRLALLEVSEAVLKKLSVRDNPAGLIALARMPERTLEEYRPSPDALILVAVGLEKPGNLGAVLRSADAAGAEAVLVAGGVDLYSPQVIRNSTGVVFSLRTLAASESEVLDWIKQHNLPLVATTPHAEALYWEANLRPPVAIAVGPEHEGLRAAWLEAAQTQVRIPMQGQADSLNVSVSAALLLYEALRQRLLRDRLTKTHSTL | soluble
MKIAGLKQLNTALKEAASGGFSRQASRWLEECGQDFLEIVQSELISTQTIDTEKLLSSFEKGAEDNLWIVQSGGLSLEVGTQLDYASFLNDGHWTSKQDVRWVPGRFQGSRFIYDPAASTGMALKRKWIPGTGYWDHALLLYEQLFEKSLESKLRQWLKKLLEHHHHHH | soluble
MGSDKIHHHHHHAEITLLKQDPQAGDPLSRLNFTVGGSIRPQFNMMTGDGDKGSYKRNGFDGGTRFRFAADYYLFDDISWISYYELGVNIPALFDWDNHYAEGANNTTRRMLYTGLKSDTWGTLTYGQQNSIYYDVVGVKTDIWDYDMIGQAPGNGINGDYDGSYRSRNMLKYKKTVGDVDLYGSYLFEDSEYLPGNGLRYKRKGGGSVGADYHIMKDLTWGTAWNYTRAEMRDPSSADSKTYDQNIVGTALSWTPDNWTFSFGGGWYQNFLTTKKTDVHNYFAGDAWGIEYFAGYKFPINQYAVKSIQPYFMGDRLEYVNGRNYQRIDNGLGISFQLDYGFRVDYEHVFTSSTDNLGDMNLVRLRYDF | not soluble
